± gives the uncertainty stated by the source.

In the supplement of paper PMC12042874 one finds amyloid nucleation score data, which are given here for 103 substances.

The series can be described thus: amyloid nucleation score (Sup35N fusion, yeast selection) (log enrichment); library NNK1; higher = more nucleation; inactive = no reads after selection. The method in brief:
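Psi-negative yeast expressed Sup35N fused to peptides of 20 random codons. They were induced 24 hours with 100 μM copper sulfate, grown 7 days at 30°C without adenine and uracil, and their plasmid inserts from input and output were Illumina-sequenced. The nucleation score is the DiMSum log enrichment of output over input reads, centred on the mode score of non-aggregating sequences. Sequences with under 100 input reads were excluded.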
As to SYCLLIDLLLHSHVGLYSPM, the amyloid nucleation score came out at 0.519 ± 0.33. The substance SYEHVGKPCSCGYGVEI came in with an amyloid nucleation score of 0.735 ± 0.32.

Consider SYFWYCGPSDDYNKPSCSMW, for which the amyloid nucleation score was -0.441 ± 0.8. In turn, SYGNVLVGHGV displayed an amyloid nucleation score of -0.044 ± 0.61. Substance SYKGFRSGKVWCFNEASYTS yielded an amyloid nucleation score of 1.18 ± 0.45.

As to SYLFVKGLIYSLSRLCLEVN, the amyloid nucleation score was -1.4 ± 0.7.

The substance SYLFVWFTSLLSDPQ had an amyloid nucleation score of -0.716 ± 1.2. With SYLMQSFDKLCAA, the amyloid nucleation score was -0.033 ± 1.1. SYNFLRPYLLFSHPFSYDSS registered an amyloid nucleation score of 0.21 ± 0.6. For SYNMTITACSNGFPEQRDT the value was 0.062 ± 0.73. SYSGTVCNRLRLVLVVDD came in with an amyloid nucleation score of -0.098 ± 0.47. The figure for SYSKGGMSPFWWTTHRCDIM is 2.09 ± 0.35. Consider SYVVETQFSSHFSVLWDLMF, for which the amyloid nucleation score is -1.49 ± 1.2.

SYWCSHIIIERMLVLVHRIV yielded an amyloid nucleation score of 1.19 ± 0.59. The substance TACPNSGNFERYGHYRSSSA had an amyloid nucleation score of 1.12 ± 0.58. In turn, TACRLQYSNSYLFLSSAEPV yielded an amyloid nucleation score of 1.28 ± 0.69. For the substance TAIDITTVLCIICRDPHINL, the amyloid nucleation score stood at 8.364 ± 0.048. On to TAKSFFRVHFSHWTRHSPSR, for which the amyloid nucleation score is 4.16 ± 0.14.

TANTLRYSFCAT registered an amyloid nucleation score of -0.213 ± 0.32. Regarding TAQMKDFSLRRNVGFVGSRW, the amyloid nucleation score result was “inactive”.

The substance TARWAKPVADNGCVNNTFLW showed an amyloid nucleation score of 2.15 ± 0.27. On to TASFY, for which the amyloid nucleation score was -0.41 ± 1.6.

In the case of TAWSSHPEV, the amyloid nucleation score is -1.16 ± 2.4. On to TCFMNVSTQFCMSYKAQRSV, for which the amyloid nucleation score turned out to be 0.11 ± 0.59. Substance TCFTLGRPNSLFCDCIGHKS yielded an amyloid nucleation score of -0.011 ± 0.29.

TCGLHQPFLGLFVSSSSIMT showed an amyloid nucleation score of 0.175 ± 0.41. TCHSKSVCCLYGLCGGPEWG returned an amyloid nucleation score of 6.453 ± 0.055. On to TCLADLDWSRGGGYYPHRLC, for which the amyloid nucleation score came to 0.372 ± 1.2. Substance TCLHYAVCMRSLVSQSALFV came in with an amyloid nucleation score of -0.771 ± 1.7.

TCLMRSRLACMFVRINEW: the amyloid nucleation score turned out to be 1.19 ± 0.62.

Turning to TCLTY, the amyloid nucleation score was -0.846 ± 2.4.

TCNNRSSSCR came in with an amyloid nucleation score of 1.1 ± 0.61. For the substance TCRIVVGSSCFRSTVFSFLY, the amyloid nucleation score came out at 1.45 ± 0.68. In turn, TCRVEMPSCCCFSGIVGCDR returned an amyloid nucleation score of 3.53 ± 0.067. With TCSLNLYLDSDVFLCLCCLW, the amyloid nucleation score is 5.65 ± 0.074. For TDAPP the value was 0.126 ± 1.1; for TDCGSTMNGGCINMCVCGHR, 7.422 ± 0.069; for TDCQRYI, 1.6 ± 0.54. Take TDFPELWSNLFQPNGFRYGL: the amyloid nucleation score stood at 0.114 ± 0.92. Regarding TDGTLIGSY, the amyloid nucleation score stood at 0.128 ± 0.44. The figure for TDLKLWH is 0.136 ± 1.2; for TDSILKRYGMSFDFWRSWRN it is 0.76 ± 0.23; for TEFSNAPPHTSAMVAYVLSY it is -1.52 ± 1.7. The substance TERFMYFKNLFVSSWTSHG had an amyloid nucleation score of 1.51 ± 0.14. Turning to TFAFISLDMVWLASAH, the amyloid nucleation score was -0.051 ± 0.26. With TFCRLISGPKIRL, the amyloid nucleation score was -0.058 ± 0.42.

For the substance TFGDWHKLRWRRSQPKCWSG, the amyloid nucleation score was 0.299 ± 0.36. TFGINRYNFRISARIGQVCI returned an amyloid nucleation score of -0.284 ± 0.22.

TFLIFDLN showed an amyloid nucleation score of 4.56 ± 0.062. Consider TFRFSGYSLNISFKNCEHYV, for which the amyloid nucleation score result was “inactive”.

For the substance TFRQVPAQFNMASRDKNSTI, the amyloid nucleation score entry is “inactive”. TFSFFDRVLSLFLN came in with an amyloid nucleation score of -0.179 ± 0.44.

TFTGDKIPIYSGVTVMASGM came in with an amyloid nucleation score of 0.715 ± 0.84. The substance TFTMSWLK showed an amyloid nucleation score of 3.22 ± 0.078. Consider TFTWGRMRSSSVDSCVKSWA, for which the amyloid nucleation score came to 1.2 ± 0.37.

TFVCIMFLDSSFSSENYGRL came in with an amyloid nucleation score of 1.7 ± 0.16. As for TFVSL, the amyloid nucleation score came out at 0.332 ± 0.49. As for TFVYVKASLSSTIAASYVAQ, the amyloid nucleation score is 1.34 ± 0.27. The substance TFYVRDRAGCPW returned an amyloid nucleation score of 1.33 ± 0.73. Substance TGCHKS displayed an amyloid nucleation score of 0.915 ± 0.97. For the substance TGDRCWLFEGYAFKEHCFAD, the amyloid nucleation score is 2.54 ± 0.13. Substance TGLSSYM came in with an amyloid nucleation score of -0.701 ± 0.97. The substance TGLVWYYCHSHRWNFRPCQW displayed an amyloid nucleation score of 0.173 ± 0.55. The substance TGQACAWGGSVILTVSCDRY displayed an amyloid nucleation score of 2.43 ± 0.12. The figure for TGRSIMPLSYRTYCIDEFVS is 0.004 ± 0.3. In the case of TGRVFLLYAAQ, the amyloid nucleation score was -0.368 ± 0.88. On to TGVTHC, for which the amyloid nucleation score result was “inactive”. As to THNWNNSYSWSPPDALVSCK, the amyloid nucleation score was found to be 0.263 ± 0.51. TIDKNNMESFITGFFGVRIL registered an amyloid nucleation score of 1.3 ± 0.4. Substance TILMASTSYFIPSLP came in with an amyloid nucleation score of 1.38 ± 0.21. The substance TISKLGQPYRRNSKPL had an amyloid nucleation score of -0.378 ± 0.41. Substance TISSLNLTRLSLDIFDFQSQ had an amyloid nucleation score of 3.25 ± 0.21.

Consider TKCGIAYFTQICLVPDVSNS, for which the amyloid nucleation score stood at 7.04 ± 0.085. With TKCIINEIVDDG, the amyloid nucleation score is -1.35 ± 2.4. Consider TKTSTSFGRVKPVN, for which the amyloid nucleation score came out at 0.793 ± 0.85. Regarding TLCFQTISPRRPQLRWTWAH, the amyloid nucleation score stood at 0.875 ± 0.61. TLCIVNIGSFVEDEKGDN came in with an amyloid nucleation score of 7.19 ± 0.073. With TLFCYADMWYNLYHRIVKVR, the amyloid nucleation score came to 1.52 ± 0.48.

Substance TLFYFMACGQLLFGKRWNWF had an amyloid nucleation score of 0.095 ± 0.58. In turn, TLLPIKHSCHGNWINQLYGT gave an amyloid nucleation score of -0.485 ± 0.32. Substance TLMRCVFLLYYPCGYIKSDL showed an amyloid nucleation score of 0.551 ± 0.31. The figure for TLPTKTTPSAFAVNEVTFLT is -0.573 ± 0.4. The figure for TLRLAREGWWEWKHVSRGEY is -0.033 ± 0.26; for TLRVLFCRTMRRVDWSVQKV it is -1.03 ± 1.7; for TLSGSYVF it is -0.567 ± 0.3.

For the substance TLSVFREWSCLGMLLGYHNL, the amyloid nucleation score result is “inactive”. For TLYCTFSTWYPLYKLQHDRY the value was 4.55 ± 0.14; for TMDGHLGYRSRNILLLSVFV, -0.41 ± 0.55.

TMLMNEWGMLLNKWEWA registered an amyloid nucleation score of -0.398 ± 1.1.

TNDEGPVRLNFNISR displayed an amyloid nucleation score of -0.389 ± 0.26. TNIALLV returned an amyloid nucleation score of 0.847 ± 0.42. With TNRVHLWFVL, the amyloid nucleation score was found to be 7.57 ± 0.078. For the substance TNRWADQTNKDAHRQTCD, the amyloid nucleation score was -0.591 ± 1.1. As to TNYWPVIFG, the amyloid nucleation score was determined as 0.116 ± 0.36. Take TQFEFFWVPKRHSMVHNCMN: the amyloid nucleation score was -0.337 ± 0.31. The substance TQVWTQRCPCKEASRPGLRT registered an amyloid nucleation score of -1.19 ± 2.7. TRAHGALYREEVKTWGSRLK displayed an amyloid nucleation score of -0.998 ± 0.8. For TRAWNGGCGALCRITFDPSC the value was 2.6 ± 0.13; for TRDTLIWFGRFGSMTDWCSW, 0.192 ± 0.63. TRLGYISRDKGYSPCR gave an amyloid nucleation score of -0.146 ± 0.39. In the case of TRMGEL, the amyloid nucleation score was -0.089 ± 0.76. Substance TRNMHKCCNTMTTLLSVLGS came in with an amyloid nucleation score of -0.186 ± 0.75. As for TRSYNWARCTLSGVALGQGQ, the amyloid nucleation score was -0.724 ± 2.4.
